The test deals with T1, GST-PBD46 (peptide derivative of p21-activated serine/threonine kinase, PAK Binding Domain 46).
T1 chain: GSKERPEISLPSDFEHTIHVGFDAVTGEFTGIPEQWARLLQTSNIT
As to the kind of experiment: pull-down.

B1: Cdc42 wild type (natural protein)
chain: not shown
For the molecule B1, the “ΔI (pull-down band intensity, wild type:PBD46 relative to T35A:PBD46)” value worked out at 4.2 ± 0.59.

The values are drawn from article PMC3134622 (Biochemistry, 2011).
